B1: aldolase A: purified human aldolase A (purity >95%), glycolytic enzyme (protein, UniProt P04075 2-364, looked up)
Fructose-bisphosphate …: PYQYPALTPEQKKELSDIAHRIVAPGKGILAADESTGSIAKRLQSIGTENTEENRRFYRQLLLTADDRVNPCIGGVILFHETLYQKADDGRPFPQVIKSKGGVVGIKVDKGVVPLAGTNGETTTQGLDGLSERCAQYKKDGADFAKWRCVLKIGEHTPSALAIMENANVLARYASICQQNGIVPIVEPEILPDGDHDLKRCQYVTEKVLAAVYKALSDHHIYLEGTLLKPNMVTPGHACTQKFSHEEIAMATVTALRRTVPPAVTGITFLSGGQSEEEASINLNAINKCPLLKPWALTFSYGRALQASALKAWGGKKENLKAAQEEYVKRALANSLACQGKYTPSGQAGAAASESLFVSNHAY

Legend:
[1] = system: spontaneously developed mammary tumors; experiment: NIR-imaging of transgenic mice; type: in vivo; conditions: 5 mg/kg once, imaged after 24 h
Procedure: FIG. 29A-29C: Effect of azurin from P. aeruginosa in a transgenic animal model. 29A. Near-infrared red (NIR) dye-conjugated azurin or PBS was injected i.v. into transgenic mice that spontaneously develop mammary tumors. Twenty-four hours after azurin injection, mice were imaged with a photodynamic eye (PDE) system (left: photographic image, right: NIR fluorescence image at 800 nm). 29B. At the end of the study, the tumors were resected.
NIR-imaging of transgenic mice: Near infrared red fluorescent dye (IR800, Licor, NE) was conjugated to azurin according to the manufacturer instructions. Transgenic mice with spontaneously developed mammary tumours received NIR dye conjugated azurin at 5 mg/kg once i.p. After 24 h, specific fluorescence signal at 800 nm was recorded by the PDE-neo® NIR camera system (Hamamatsu photonics, Mitaka-USA).

P. aeruginosa = experiment: Azurin secretion by P. aeruginosa treated with purified aldolase A (western blot); type: cell-based, Pseudomonas aeruginosa; conditions: 30 min
Procedure: FIG. 18A-18G: Induction of aldolase A secretion by host cells in the presence of P. aeruginosa. 18A. Human host cells (cancer and normal) and P. aeruginosa were co-incubated for 30 min at a concentration of 500,000 human cells/ml with P. aeruginosa at OD=0.3. Aldolase secretion varied between the co-cultures with cancer and normal cells. […] 18B Correlation between the aldolase A and azurin levels in co-cultures of P. aeruginosa with cancer or normal cells. 18C Cancer cells (Mel-2 and MDA-MB-231) and P. aeruginosa (WT and azunull mutant) were co-incubated for 30 min at a concentration of 500,000 human cells/ml with P. aeruginosa at OD=0.3. Secretion of aldolase into the culture supernatant was assessed by western blot analysis. 18D P. aeruginosa (OD=0.3) was treated with purified aldolase A protein at concentrations of 1 nM, 10 nM, 100 nM, and 1 μM for 30 min. […]
Western blotting: After running the NuPAGE, proteins were transferred to PVDF membranes (BioRad Laboratories Inc, Hercules, CA) which were blocked in SuperBlock (T20 TBS buffer, Thermo Fisher) for one hour. […] The signal was detected using enhanced chemiluminescence (ECL, Thermo Fisher Scientific). Quantitative analysis of the bands was performed with a computer-assisted imaging densitometer (UN-SCAN-IT gel version 5.1).

MDA-MB-231 cells = experiment: Host cell adhesion assay, P. aeruginosa on MDA-MB-231 cells; type: cell-based, human
Procedure: (§1) FIG. 24A-24E: 24A—Adherence assays were performed essentially as previously described38. Monolayer MDA-MB-231 (red) and Mel-2 (blue) cells were compared to siRNA-induced silencing of aldolase gene in the cancer cell lines (+) when they were co-incubated with P. aeruginosa for 2 h. To assess total cell association, monolayers were washed to remove unbound P. aeruginosa and were then disrupted and homogenized in 0.10% saponin/PBS. P. aeruginosa cells were counted by serial dilution of the homogenized suspensions and subsequent determination of colony-forming units (CFU) by plating on LB agar. Control (−) expressed as 100%. Mean±SE, *P<0.05. 24B—Monolayer MDA-MB-231 (red) and Mel-2 (blue) cells were co-incubated with P. aeruginosa in the presence or absence of exogenous aldolase A for 2 h. Similar to above, total P. aeruginosa association on cancer cells were counted by plating on LB agar. Control (0 μM aldolase A) expressed as 100%. […] Total P. aeruginosa association on cancer cells were counted by plating on LB agar. *P<0.05, NS: not significant. […] The mean+SE values were calculated.
(§2) Host cell adhesion assay: The assays were performed essentially as described before38. […] Control values of CFU/ml expressed as 100%. siRNA-induced silencing of aldolase and MUC1 genes in MDA-MB-231 and Mel2 cells as conducted as described previously80,81. […]

Mel-2 cells = experiment: Host cell adhesion assay, P. aeruginosa on Mel-2 cells; type: cell-based, human
Procedure: as §1, §2

| Molecule | tumor localization (NIR fluorescence at 800 nm) [1] | azurin secretion by P. aeruginosa (western blot) (P. aeruginosa; P. aeruginosa OD=0.3, 1 μM aldolase A) | azurin secretion by P. aeruginosa (western blot) (P. aeruginosa; P. aeruginosa OD=0.3, purified aldolase A 1 nM-1 μM) | aldolase A concentration at which increase of adherence is saturable (MDA-MB-231 cells; MDA-MB-231, 2 h) | adherence of P. aeruginosa to cancer cells (MDA-MB-231 cells; MDA-MB-231, exogenous aldolase A, 2 h) | aldolase A concentration at which increase of adherence is saturable (Mel-2 cells; Mel-2, 2 h) | adherence of P. aeruginosa to cancer cells (Mel-2 cells; Mel-2, exogenous aldolase A, 2 h) |
| --- | --- | --- | --- | --- | --- | --- | --- |
| NIR dye-conjugated azurin: azurin conjugated to near infrared red fluorescent dye IR800 | preferentially localized to spontaneously developed mammary tumors | – | – | – | – | – | – |
| B1 | – | stimulated azurin secretion | induced azurin secretion | > 1 µM | significantly increased adherence to cancer cells | > 1 µM | significantly increased adherence to cancer cells |
